For data set [1], the target named is T1, CSL (RBPJ) (Mus musculus, UniProt P31266 53-474). The data set can be described thus: ITC; K = 2.2 +/- 1.4 x10^7 M-1; n=3; ITC: 50 mM sodium phosphate pH 6.5, 150 mM NaCl, 10 C (10 uM CSL in cell, 100 uM DNA in syringe). EMSA: 150 mM KCl, 50 mM Tris pH 7.4, 1 mM DTT, 2% polyvinyl alcohol, 30 ng/ul poly(dI-dC), on ice 30 min, 25 fmol biotin probe in 5 ul. The conditions noted are these: protein: recombinant; tags: GST tag cleaved off.

Data set [2] deals with T2, GST-Su(H) (CSL) (UniProt P28159 110-594). The data set can be described thus: EMSA; labeled probe; self-competes at 25x excess; ITC: 50 mM sodium phosphate pH 6.5, 150 mM NaCl, 10 C (10 uM CSL in cell, 100 uM DNA in syringe). EMSA: 150 mM KCl, 50 mM Tris pH 7.4, 1 mM DTT, 2% polyvinyl alcohol, 30 ng/ul poly(dI-dC), on ice 30 min, 25 fmol biotin probe in 5 ul. The conditions noted are these: protein: recombinant; tags: N-terminal GST; label: 3' biotin when used as probe; blunt.
T2 sequence (P28159 110-594): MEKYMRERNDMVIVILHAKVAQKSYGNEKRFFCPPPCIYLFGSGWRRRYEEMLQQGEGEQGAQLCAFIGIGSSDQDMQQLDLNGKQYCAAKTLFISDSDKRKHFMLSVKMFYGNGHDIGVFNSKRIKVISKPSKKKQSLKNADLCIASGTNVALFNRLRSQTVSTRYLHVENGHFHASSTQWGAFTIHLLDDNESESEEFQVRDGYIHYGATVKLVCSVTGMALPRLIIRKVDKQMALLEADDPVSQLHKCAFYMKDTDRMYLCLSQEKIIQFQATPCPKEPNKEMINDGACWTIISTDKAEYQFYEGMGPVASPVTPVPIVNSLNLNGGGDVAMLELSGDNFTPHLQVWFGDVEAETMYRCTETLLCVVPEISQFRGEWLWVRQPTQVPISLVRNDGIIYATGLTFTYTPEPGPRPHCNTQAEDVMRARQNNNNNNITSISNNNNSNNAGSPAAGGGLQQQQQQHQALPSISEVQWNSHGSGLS

Data set [3] deals with T1, CSL (RBPJ). Put plainly: ITC; K = 2.0 +/- 0.5 x10^6 M-1; n=3; ITC: 50 mM sodium phosphate pH 6.5, 150 mM NaCl, 10 C (10 uM CSL in cell, 100 uM DNA in syringe). EMSA: 150 mM KCl, 50 mM Tris pH 7.4, 1 mM DTT, 2% polyvinyl alcohol, 30 ng/ul poly(dI-dC), on ice 30 min, 25 fmol biotin probe in 5 ul. The conditions noted are these: protein: recombinant; tags: GST tag cleaved off.

The target in data set [4] is T1, CSL (RBPJ). Put plainly: ITC; K = 5.9 +/- 1.0 x10^5 M-1; n=3; ITC: 50 mM sodium phosphate pH 6.5, 150 mM NaCl, 10 C (10 uM CSL in cell, 100 uM DNA in syringe). EMSA: 150 mM KCl, 50 mM Tris pH 7.4, 1 mM DTT, 2% polyvinyl alcohol, 30 ng/ul poly(dI-dC), on ice 30 min, 25 fmol biotin probe in 5 ul. The conditions noted are these: protein: recombinant; tags: GST tag cleaved off.

In data set [5] the target is T2, GST-Su(H) (CSL). Put plainly: competition; EMSA, labeled M1 probe; 2.84-fold at 10x; ITC: 50 mM sodium phosphate pH 6.5, 150 mM NaCl, 10 C (10 uM CSL in cell, 100 uM DNA in syringe). EMSA: 150 mM KCl, 50 mM Tris pH 7.4, 1 mM DTT, 2% polyvinyl alcohol, 30 ng/ul poly(dI-dC), on ice 30 min, 25 fmol biotin probe in 5 ul. As to conditions: protein: recombinant; tags: N-terminal GST; blunt.
T2 sequence (P28159 110-594): as above

The target in data set [6] is T2, GST-Su(H) (CSL). The data set can be described thus: competition; EMSA, labeled M1 probe; 2.4-fold vs M3; ITC: 50 mM sodium phosphate pH 6.5, 150 mM NaCl, 10 C (10 uM CSL in cell, 100 uM DNA in syringe). EMSA: 150 mM KCl, 50 mM Tris pH 7.4, 1 mM DTT, 2% polyvinyl alcohol, 30 ng/ul poly(dI-dC), on ice 30 min, 25 fmol biotin probe in 5 ul. The conditions noted are these: protein: recombinant; tags: N-terminal GST; blunt.

Data set [7] concerns the target T1, CSL (RBPJ). Put plainly: ITC; no binding detected; ITC: 50 mM sodium phosphate pH 6.5, 150 mM NaCl, 10 C (10 uM CSL in cell, 100 uM DNA in syringe). EMSA: 150 mM KCl, 50 mM Tris pH 7.4, 1 mM DTT, 2% polyvinyl alcohol, 30 ng/ul poly(dI-dC), on ice 30 min, 25 fmol biotin probe in 5 ul. The conditions noted are these: protein: recombinant; tags: GST tag cleaved off.

Data set [8] deals with T2, GST-Su(H) (CSL). The data set can be described thus: competition; failed to compete at 125x; ITC: 50 mM sodium phosphate pH 6.5, 150 mM NaCl, 10 C (10 uM CSL in cell, 100 uM DNA in syringe). EMSA: 150 mM KCl, 50 mM Tris pH 7.4, 1 mM DTT, 2% polyvinyl alcohol, 30 ng/ul poly(dI-dC), on ice 30 min, 25 fmol biotin probe in 5 ul. The conditions noted are these: protein: recombinant; tags: N-terminal GST; blunt.

Data set [9] has as its target T2, GST-Su(H) (CSL). The data set can be described thus: competition; not detectable at 125x excess; ITC: 50 mM sodium phosphate pH 6.5, 150 mM NaCl, 10 C (10 uM CSL in cell, 100 uM DNA in syringe). EMSA: 150 mM KCl, 50 mM Tris pH 7.4, 1 mM DTT, 2% polyvinyl alcohol, 30 ng/ul poly(dI-dC), on ice 30 min, 25 fmol biotin probe in 5 ul. As to conditions: protein: recombinant; tags: N-terminal GST; blunt.

T1 sequence (P31266 53-474): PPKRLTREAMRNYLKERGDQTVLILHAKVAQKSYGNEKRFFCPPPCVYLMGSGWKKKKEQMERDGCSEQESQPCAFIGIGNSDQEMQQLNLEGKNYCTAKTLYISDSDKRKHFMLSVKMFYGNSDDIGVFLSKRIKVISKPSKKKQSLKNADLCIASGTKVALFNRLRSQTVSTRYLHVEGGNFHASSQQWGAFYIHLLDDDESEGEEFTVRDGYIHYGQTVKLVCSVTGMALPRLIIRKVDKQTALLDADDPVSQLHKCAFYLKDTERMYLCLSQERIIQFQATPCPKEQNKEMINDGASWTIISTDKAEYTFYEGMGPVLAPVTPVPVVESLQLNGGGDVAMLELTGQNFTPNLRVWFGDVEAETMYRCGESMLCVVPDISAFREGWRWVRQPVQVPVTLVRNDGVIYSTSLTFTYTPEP

B1: ITC duplex CGTGGGAA (dsDNA)
DNA 1: GTTACCGTGGGAAAGAAAG
DNA 2: CTTTCTTTCCCACGGTAAC
With B1, the Kd with CSL (RBPJ) [1] came out at 60 nM.

B2: M1 (S1, CGTGGGAA) (dsDNA)
DNA 1: ACCGAAACCGTGGGAACTGGTAGAAAG
DNA 2: CTTTCTACCAGTTCCCACGGTTTCGGT
B2: in the data set with GST-Su(H) (CSL) [2], the binding result is given as “binds”.

B3: ITC duplex TGTGGGAA (dsDNA)
DNA 1: GTTACTGTGGGAAAGAAAG
DNA 2: CTTTCTTTCCCACAGTAAC
As to B3, the Kd with CSL (RBPJ) [3] was 500 nM.

B4: ITC duplex CGTGTGAC (dsDNA)
DNA 1: GTTACCGTGTGACAGAAAG
DNA 2: CTTTCTGTCACACGGTAAC
For the molecule B4, the Kd with CSL (RBPJ) [4] was determined as 1720 nM.

B5: M3 (S2, TGTGGGAA) (dsDNA)
DNA 1: ACCGAAACTGTGGGAACTGGTAGAAAG
DNA 2: CTTTCTACCAGTTCCCACTGTTTCGGT
Regarding B5, the binding signal in the data set with GST-Su(H) (CSL) [5] was 3.67 fold difference vs M1 at 25x excess.

B6: M4 (S3, CGTGTGAA) (dsDNA)
DNA 1: ACCGAAACCGTGTGAACTGGTAGAAAG
DNA 2: CTTTCTACCAGTTCACACGGTTTCGGT
With B6, in the data set with GST-Su(H) (CSL) [6], the binding signal is 9 fold difference vs M1 at 25x excess.

B7: ITC duplex TCATACCT (dsDNA)
DNA 1: GCTACTCATACCTAGAACG
DNA 2: CGTTCTAGGTATGAGTAGC
Take B7: the binding result with CSL (RBPJ) [7] is on record as “no binding”.

B8: M8 (S7, TATAAGAA) (dsDNA)
DNA 1: ACCGAAACTATAAGAACTGGTAGAAAG
DNA 2: CTTTCTACCAGTTCTTATAGTTTCGGT
Take B8: the binding result with GST-Su(H) (CSL) [8] is “no binding”.

B9: M11 (S10, CATGGGGA) (dsDNA)
DNA 1: ACCGAAACCATGGGGACTGGTAGAAAG
DNA 2: CTTTCTACCAGTCCCCATGGTTTCGGT
On to B9, for which the binding result with GST-Su(H) (CSL) [9] is reported as “no binding”.

The values are drawn from PMC4176381, “A combination of computational and experimental approaches identifies DNA sequence constraints associated with target site binding specificity of the transcription factor CSL”.
